As a reminder, the Kd is the equilibrium constant for the complex coming apart.

The subject of data set [1] is hexa-HIS peptide (synthetic). Kind of data set: MST. Particulars: 20 mM Tris-HCl pH 7.4, 140 mM NaCl, 5 mM MgCl2, 1 mM CaCl2, 1 mM KCl; FLAA/MST with 0.1% BSA and 0.05% Tween 20 (FLAA at RT); SPR without BSA, 0.005% Tween 20 ….
For data set [2], the target named is T1, mPD1-HIS (mouse Programmed cell Death protein 1) (mouse, UniProt Q02242 25-169). Nature of the data set: SPR; aptamer immobilized; 20 mM Tris-HCl pH 7.4, 140 mM NaCl, 5 mM MgCl2, 1 mM CaCl2, 1 mM KCl; FLAA/MST with 0.1% BSA and 0.05% Tween 20 (FLAA at RT); SPR without BSA, 0.005% Tween 20. Particulars: protein: commercial, tags: C-terminal HIS. (In general: In SPR one partner is held on a chip, and binding of the other changes the refractive index at the surface.)
T1 sequence (Q02242 25-169): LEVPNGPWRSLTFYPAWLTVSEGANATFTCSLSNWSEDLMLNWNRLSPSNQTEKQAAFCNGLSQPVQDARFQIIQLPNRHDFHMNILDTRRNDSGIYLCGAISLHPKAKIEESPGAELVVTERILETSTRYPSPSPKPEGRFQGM

In data set [3] the target is CFHR1-HIS (Complement factor H-related protein 1) (UniProt Q03591 19-330). The description is as above. The conditions noted are these: protein: commercial, tags: C-terminal HIS.
Chain of CFHR1-HIS (Complement factor H-related protein 1) (Q03591 19-330): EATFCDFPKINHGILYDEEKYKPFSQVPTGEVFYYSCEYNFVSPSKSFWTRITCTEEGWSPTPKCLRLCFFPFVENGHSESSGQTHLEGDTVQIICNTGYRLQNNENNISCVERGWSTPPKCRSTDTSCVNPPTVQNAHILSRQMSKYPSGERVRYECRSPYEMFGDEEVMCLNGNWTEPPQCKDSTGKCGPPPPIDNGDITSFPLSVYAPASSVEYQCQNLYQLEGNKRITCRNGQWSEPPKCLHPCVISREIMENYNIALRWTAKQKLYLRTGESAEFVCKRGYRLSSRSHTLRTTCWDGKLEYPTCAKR
In data set [4] the target is T2, HIS-NDM-1 (New Delhi metallo-beta-lactamase 1) (E. coli, UniProt C7C422 29-270). Described as above. Particulars: protein: commercial, tags: N-terminal His6.
T2 sequence (C7C422 29-270): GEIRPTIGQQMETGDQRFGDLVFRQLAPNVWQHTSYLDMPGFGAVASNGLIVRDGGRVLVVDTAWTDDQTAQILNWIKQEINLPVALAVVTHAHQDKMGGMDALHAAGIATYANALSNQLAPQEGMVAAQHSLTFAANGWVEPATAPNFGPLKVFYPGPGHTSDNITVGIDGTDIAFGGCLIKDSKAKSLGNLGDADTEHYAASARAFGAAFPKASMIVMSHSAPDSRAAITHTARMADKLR
The target in data set [5] is T2, HIS-NDM-1 (New Delhi …). Kind of data set: FLAA; signal exceeds initial library; 20 mM Tris-HCl pH 7.4, 140 mM NaCl, 5 mM MgCl2, 1 mM CaCl2, 1 mM KCl; FLAA/MST with 0.1% BSA and 0.05% Tween 20 (FLAA at RT); SPR without BSA, 0.005% Tween 20. Particulars: protein: commercial; tags: N-terminal His6.
Data set [6] deals with T1, mPD1-HIS (mouse Programmed cell Death …). Nature of the data set: SPR; protein immobilized, 1 uM aptamer; 20 mM Tris-HCl pH 7.4, 140 mM NaCl, 5 mM MgCl2, 1 mM CaCl2, 1 mM KCl; FLAA/MST with 0.1% BSA and 0.05% Tween 20 (FLAA at RT); SPR without BSA, 0.005% Tween 20. The conditions noted are these: protein: commercial; tags: C-terminal HIS.
In data set [7] the target is T2, HIS-NDM-1 (New Delhi …). Kind of data set: FLAA; signal exceeds initial library; not seen in SPR; 20 mM Tris-HCl pH 7.4, 140 mM NaCl, 5 mM MgCl2, 1 mM CaCl2, 1 mM KCl; FLAA/MST with 0.1% BSA and 0.05% Tween 20 (FLAA at RT); SPR without BSA, 0.005% Tween 20. Particulars: protein: commercial; tags: N-terminal His6.
Data set [8] concerns the target T2, HIS-NDM-1 (New Delhi …). Kind of data set: SPR; aptamer immobilized; text gives upper limit 4.43E-09; 20 mM Tris-HCl pH 7.4, 140 mM NaCl, 5 mM MgCl2, 1 mM CaCl2, 1 mM KCl; FLAA/MST with 0.1% BSA and 0.05% Tween 20 (FLAA at RT); SPR without BSA, 0.005% Tween 20. Particulars: protein: commercial; tags: N-terminal His6; label: 5'-BiotinTEG (SPR kinetics); 5'-Cy5 (MST); none (screens).

Data set [9] addresses OXA-23 beta-lactamase (A. baumannii) (Acinetobacter baumannii, UniProt Q9L4P2 18-273). Nature of the data set: MST; 20 mM Tris pH 7.4, 140 mM NaCl, 5 mM MgCl2, 1 mM CaCl2, 1 mM KCl, 0.1% BSA, 0.05% Tween 20. Particulars: tags: N-His6; label: 5'-Cy5.
Data set [10] concerns the target T2, HIS-NDM-1 (New Delhi …). Kind of data set: MST; 20 mM Tris-HCl pH 7.4, 140 mM NaCl, 5 mM MgCl2, 1 mM CaCl2, 1 mM KCl; FLAA/MST with 0.1% BSA and 0.05% Tween 20 (FLAA at RT); SPR without BSA, 0.005% Tween 20. The conditions noted are these: protein: commercial, tags: N-terminal His6.
The mark [11] stands for this setting: label: 5'-BiotinTEG (SPR kinetics), 5'-Cy5 (MST), none (screens).
[12] abbreviates: label: 5'-BiotinTEG (SPR), 5'-Cy5 (MST), none (FLAA).

Chain of OXA-23 beta-lactamase (A. baumannii) (Q9L4P2 18-273): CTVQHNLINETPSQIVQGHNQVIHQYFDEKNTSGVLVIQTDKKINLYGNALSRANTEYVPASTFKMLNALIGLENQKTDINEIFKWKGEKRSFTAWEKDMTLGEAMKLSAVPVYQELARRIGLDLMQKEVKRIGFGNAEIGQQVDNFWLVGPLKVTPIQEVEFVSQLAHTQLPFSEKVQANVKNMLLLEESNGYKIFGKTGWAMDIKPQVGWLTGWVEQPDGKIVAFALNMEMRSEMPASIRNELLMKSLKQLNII

The molecule “GTATCTGGTGGTCTATGGCGTCATAGGTACCATGGGGGACTGCTCGGGATTGCGGATTCATGGCATAGACGACGAAGAAC [NDM1-H14-01]” displayed a dissociation constant Kd in [1] of 28.1 nM. This counts as double-digit nanomolar.
Turning to CGTCATAGGTACCATGGGGGACTGCTCGGGATTGCGGATTCATG (ssDNA) [NDM1-H14-01-FR], the dissociation constant Kd was 0.125 nM in data set [2] (label: 5'-BiotinTEG), 0.0286 nM in [3] (label: 5'-BiotinTEG) and 5.91 nM with HIS-NDM-1 (New Delhi …) [4] (label: 5'-BiotinTEG).

B1: NDM1-H14-02 (ssDNA)
DNA: GTATCTGGTGGTCTATGGCCAGTATGGCTGTTCAAGTCTTCAGAGGGTCTGCTCGGGATTGCGCATAGACGACGAAGAAC
Take B1: the binding result in the data set with HIS-NDM-1 (New Delhi …) [5] is listed as “binds”.

B2: NDM1-H14-25 (ssDNA)
DNA: GTATCTGGTGGTCTATGGCAAACGTTCTGAGTTAGGCTTATTTTTCTCTCTTCCCTTCGCCGCATAGACGACGAAGAAC
Regarding B2, the binding result (in data set [6]; in the data set with HIS-NDM-1 (New Delhi …) [7]) was “binds” throughout.

B3: NDM1-H14-01 (ssDNA)
DNA: GTATCTGGTGGTCTATGGCGTCATAGGTACCATGGGGGACTGCTCGGGATTGCGGATTCATGGCATAGACGACGAAGAAC
Turning to B3, the Kd came out at 0.0986 nM in data set [2] (setting [11]), 0.0449 nM in data set [3] (setting [11]) and 4.34 nM with HIS-NDM-1 (New Delhi …) [8].

B4: NDM1-H14.2_43 (ssDNA)
DNA: GTATCTGGTGGTCTATGGCCGCTATCCGCAATCTGTCTCTTTTCTTTATTCTTTTACTCACCGCATAGACGACGAAGAAC
As to B4, in data set [9], the binding result is listed as “no binding”. Moreover, the equilibrium dissociation constant (Kd) is 745 nM with HIS-NDM-1 (New Delhi …) [4] (setting [12]) and 2820 nM with HIS-NDM-1 (New Delhi …) [10] (setting [12]).

B5: Con1 (ssDNA)
DNA: GGGAATTCGAGCTCGGTACCGGCTGCTTTGCTGCAGATTTGTGGGTGGGTGGGTGGTGATCTGCAGGCATGCAAGCTTGG
Turning to B5, the binding result with HIS-NDM-1 (New Delhi …) [10] (label: 5'-Cy5) is on record as “no binding”.

Source of the values: PMC9106695, “The use of high-affinity polyhistidine binders as masking probes for the selection of an NDM-1 specific aptamer”.
